Nine substances from publication PMC8176726 can be followed below.

The subject of series [1] is His6-CssR (Corynebacterium glutamicum RES167). Nature of the series: EMSA. Conditions: apparent KD; EMSA: 10 mM Tris-HCl pH 7.4, 5 mM MgCl2, 50 mM KCl, 5% glycerol, 0.1% NP40, 1 ug poly(dI:dC), 0.5 mM EDTA, 20 ng DNA in 20 ul, room temperature 30 min.
Series [2] has as its system T1, His6-CssR (Corynebacterium glutamicum RES167), ORF:46f2a94e.
T1 sequence: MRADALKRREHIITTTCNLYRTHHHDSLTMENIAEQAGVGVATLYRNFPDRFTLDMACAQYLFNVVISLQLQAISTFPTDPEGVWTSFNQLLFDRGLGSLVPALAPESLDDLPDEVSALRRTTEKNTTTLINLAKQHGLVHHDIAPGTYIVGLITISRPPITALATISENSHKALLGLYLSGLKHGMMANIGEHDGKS
Nature of the series: EMSA. As to conditions: EMSA: 10 mM Tris-HCl pH 7.4, 5 mM MgCl2, 50 mM KCl, 5% glycerol, 0.1% NP40, 1 ug poly(dI:dC), 0.5 mM EDTA, 20 ng DNA in 20 ul, room temperature 30 min.

Series [3] shares this test system. Nature of the series: DNase I footprinting. Conditions: EMSA: 10 mM Tris-HCl pH 7.4, 5 mM MgCl2, 50 mM KCl, 5% glycerol, 0.1% NP40, 1 ug poly(dI:dC), 0.5 mM EDTA, 20 ng DNA in 20 ul, room temperature 30 min.
For series [4], the target named is His6-CssR (C. glutamicum stress-sensing regulator, NCgl1578) (Corynebacterium glutamicum RES167). Nature of the series: SEC; Superdex 75 10/300 GL, 50 mM potassium phosphate pH 7.4, 0.15 M NaCl; calibrated with a low molecular weight gel filtration kit (Kav versus log molecular weight); native mass 52 kDa.

Consider 131-bp PcssR, for which, in series [1], the Kd was 17 nM. Take “AACACCGCGAATTATAGACTGAACTGGTACTTGGGAAGCTTTTTATAGTCATATGCGTTGAGATACGTGGACGACAAAGCACCAGTTAGTTGCCTTCCCAGTCCAGCCCACATCCGATTTCTAAATTAGGAGCACATC (double strand) [mtr promoter]”: the binding entry in series [2] was “no binding”. “CGTAATTATTTCCGCGACAAGCTATTTGCAAGCTATGTGCAGGCTCATTGCACAAGTTCAGCGCGGAGACACGTCCTAAAAAATACTTATGAAATTATGTTCGACACCGAAATGTCACCTGAAACTTCAACCAAGCCGCCAGTGCACCTATTCCACAAACCAAAAAATCCGCCAACACGAATGCGGCGGATTTTTAAGATGTACAGG (double strand) [mshC promoter]”: in series [2], the binding result was “no binding”. As for “CGTTTTAGTGCGTCTGCTCTCATGTTGTTGTCCTCTAGTTGACAGCGGGGGTGGTGGTGGTCCTAAAATAGCCTACGATAACTGATAGTGTTTCCTCCACTTACGGAAGAAGATACATGAATACCCCTCTTTTGAGAAGCTCTGGGCTCTCCATCCGCGACACACCCTTCGCCGATGTTGAGATAGCTCCAGACAGCGGACTCAC (double strand) [PcssR footprint fragment]”, the binding result in series [3] is “binds”. With “GAAGTTTTTCAAAGTGTCTGACGTTGAAAACGGTGAGTTCACAACTAGGGTGAATGGTGCACGTGATGCTGCACTTTTACGTTTACTACTTTGAGGGAAAC (double strand) [trx promoter]”, the binding entry in series [2] is “no binding”. “GATCACCGCATGTGAAACAAGCGGATACGCAATGAGCATCCCCCACGCCCACTGCACATTAAACACCCAATTCAACACCGCAAAACCCACCAAAAACAGCAGCGTCGCGATCACACAAGCAGCGTCAGATCTTTGCGGCATAGCGCCATC (double strand) [mrx1 promoter]”: in series [2], the binding entry is listed as “no binding”. In the case of “GGTATTGGGCGCATGCCATGTCCAGTGTGAAGCGATCGGGGAAGTTTCGGTATAAAGTTGCAACACCCACTCCTGCCTGTTCTGCAATGTTTTCCATGGTGAGCGAATCGTGATGGTGTGTGCGGTAGAG (double strand) [131-bp cssR coding region control]”, the binding entry in series [2] is listed as “no binding”. As for “GTTGTTGTCCTCTAGTTGACAGCGGGGGTGGTGGTGGTCCTAAAATAGCCTACGATAACTGATAGTGTTTCCTCCACTTACGGAAGAAGATACATGAATACCCCTCTTTTGAGAAGCTCTGGGCTCTCCAT (double strand) [131-bp PcssR]”, in series [2], the Kd amounted to 17 nM and the binding result is recorded as “binds”.

“His6-CssR (C. glutamicum stress-sensing regulator, NCgl1578) (natural protein)” showed a stoichiometry N in series [4] of 2.
